The supplement of paper PMC9170038

Tested on: K4 kissing-loop RNA reporter
Test: apparent KD of K4 kissing-loop reporter; higher = weaker reporter binding
Conditions: Eterna round: R107
Description: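 RNA-MaP round R107: designed RNA switches with theophylline, tryptophan, arginine or FMN aptamers are transcribed on-chip within common flanks. They are titrated with a labelled K4 kissing-loop RNA reporter in RNA-MaP buffer (100 mM Tris pH 7.5, 80 mM KCl, 4 mM MgCl2), without ligand or with the indicated ligand. Median apparent KD per design.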

[1] = input ligand: theophylline 20 uM
[2] = input ligand: tryptophan 2.4 mM
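Also: bound reporter read as fluorescence of individual clusters on recovered sequencing chips by microscopy, with normalized cluster intensities fitted with a binding model.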

Sequence | apparent KD of K4 kissing-loop reporter (input ligand: FMN 200 uM) [nM] | apparent KD of K4 kissing-loop reporter (input ligand: arginine 13.2 mM) [nM] | apparent KD of K4 kissing-loop reporter (input ligand: none) [nM] | apparent KD of K4 kissing-loop reporter [1] [nM] | apparent KD of K4 kissing-loop reporter [2] [nM]
AUGCAUGAAAGUGAUGUUUUCAGUAAUGGAAAGGAUAUGCGCUGGUGCAGAAGGUUCUAAAGUGCAUCCAACAACUGGGUAGGCC [theeternabot_sameState_KL_FMN_A_36] | 218 | 316 | 322 | 273 | 310
AAUAAUCUAGGUGAUACCAGCUCAACAUGAGUGAUGUUCGUGAGCUAAUGUAGAGUUGAGAGCCCUUGGCAGCACCUAGAUAAUA [KL-SSTheoB7] | 698 | 552 | 943 | 1140 | 626
CUAUCGGUGCCAGUGAUGUUGGUACCGCCACGAGGACCGGUACGGCCGCCACUCGCAUUAGAUGAUCACACAGUGUAUACUGCUA [Aleusorza] | 139 | 128 | 135 | 159 | 122
GUUAUGGACCUUUUGAUCGUUCGUAGCGAUACCAGACAAUGGGCAGUCCCUUGGCAGCGCUAAUUGAGUGAUGUUCAAACGUGCA [theeternabot_exclusion_KL_Theo_A_46] | 730 | 309 | 680 | 331 | 364
GGAUUUGAAAGUGAGUGAUGUUCAUGUUGUGAGGAUAUGUAGAGAUAUAGAAGGCACGUUUGUAUUUUUUUUGUGUGAGAUUAAA [Last Minute #1] | 81.5 | 64.9 | 65.1 | 75.2 | 65.5
UGUACCGAGUCAGGAUAUGGCGUCGAAAGACGAAUUCUAGUGAUGUUAGGGAUCUGCGAAAGCAGUCCAGAAGGGACUUGGUACU [FmnBS 26 U36] | 322 | 439 | 607 | 692 | 542
UGGAUAUAGUGAUGUUAUAUAGAGAUGGAUACCAGCGAAGAGAAUUGCCCUUGGCAGCCGAAAGAAGUAUCAUUAGAGAAGAAUG [ExTheophyl.Ah] | 254 | 213 | 252 | 261 | 186
UUGUUUGGUUGAGAGGUUGGGCGAGAUGAUACCAGUAGAGAAGAGUACCCUUGGCAGCAUAGGAGAGAUAUAGUGAUGUUGUAUA [SSTheophA.R] | 487 | 424 | 420 | 525 | 402
AUGCUUAUAAUAACACUAUAUACAACUGAAGGAGCGACAAUAAAGUCAGGUAGGUCGCAGAAUAAAUGAGUGAUGUUCAUUUUUA [JR_ExcArginiA_Sub010] | 113 | 138 | 113 | 144 | 84.2
UCGAUGGCCAGCGAUACCAGCCCAGUGAUGUUGGGCACAUGGUUGCGGGAAAUCCCAUUGGGCCCUUGGCAGCGCUUGCAUAGGU [Cezaat] | 197 | 155 | 162 | 219 | 171
UAUAAUUCGGCGGCCGCCACUGACCAUAGCCUUCGAUGGCCAGUGAUGUUGGCCUCUGGCUCUAACAGGACCGGGCCGAAUUGUG [Reresoza] | 211 | 164 | 180 | 138 | 120
GUAGCACAGUCGGCCGCCACUGUCGGUUCUCCAGUGAUGUUGGAGUUAGUUCGUCGCAGUUCAAACAGGACCGGGACCAUUCCUU [theeternabot_exclusion_KL_Trp_B_26] | 125 | 135 | 127 | 132 | 121
AAAAUAAACUAGUGAUGUUGGUGUCCAGAUACCAGCGACGAAAGUCGCCCUUGGCAGCUGUGGACGUACAAAAUAAGUACGUCCU [MatMod 21 - Jieux - Same State - Theophylline A] | 319 | 183 | 345 | 198 | 289
UCGGACGCGCACCUAGGCCAAUCCACUGCGAAGGAUAUGCGCGCCAGCAGAAGGUCGUUUUAUGAGUGAUGUUUAGAAACAGCGU [theeternabot_exclusion_KL_FMN_A_25] | 428 | 250 | 305 | 294 | 246
ACUGUACCGGGAAGGAGCGUGAAUGAGAAUGGAUAUAGUGAUGUUAUGUAUACGAACGAAUCGCAGGUAGGUCGCCCGGAUCCCU [SSArgB.aC] | 617 | 322 | 398 | 851 | 553
GACAUAUUCCAGGAUACCAGUGAUCCGCCGCAGCCGAAGACUAGUGAUGUUAGUUUCUGUCACCCUUGGCAGCCUCGAGUCUAAU [theeternabot_sameState_KL_Theo_B_15] | 420 | 487 | 498 | 572 | 434
UAGUCCUAGUGAUGGUUAUCACGUGGUGGGCGAGGACCGGUACGGCCGCCACUCGACUAUGCAGUGAUGUUGCAAUCCGGACAAU [Exclusion - Tryptophan A (Freestyle 16)] | 319 | 411 | 423 | 353 | 116
UUAUAUAUAUUAGAUACCAGUUUAAUGGAAACAAAUUAUGUUAUGAGUGAUGUUCAUGUAAGCCCUUGGCAGCUGGUAUGGGUUU [KL-XTheo-B18] | 235 | 305 | 237 | 322 | 207
AGAUAGGGCUGAAGGAGCGUCGGAGAAGAGAAGAAGAAAUCCAGUGAUGUUGGAUAAAUCCGACAGGUAGGUCGCAGUUUUAUGA [hbob_SS_Arginine_B_2t137] | 122 | 135 | 115 | 179 | 119
GUGGUGGUGGCGGCCGCCACUGAAGAUAAUGAGUGAUGUUCAAGUGAUGUUAAUAAGAACAGUAUCAGGACCGGGCCACCACCAC [Default title] | 37.5 | 27.7 | 34.1 | 25.4 | 33.8
AAGUCUCGUUAAUUCGAGGUUGCGAUCGAUACCAGUAGCGAGAGGUACCCUUGGCAGCGAAGUGAGUGAUGUUCAUGAAAGAAGA [KL-XTheoA13] | 59.8 | 101 | 107 | 113 | 68.6

Sequence | apparent KD of K4 kissing-loop reporter (input ligand: FMN 200 uM) [nM] | apparent KD of K4 kissing-loop reporter (input ligand: arginine 13.2 mM) [nM] | apparent KD of K4 kissing-loop reporter (input ligand: none) [nM] | apparent KD of K4 kissing-loop reporter [1] [nM] | apparent KD of K4 kissing-loop reporter [2] [nM]
UAAGAUUCUGUCUCAUUGAGACAGAAUCAACGAGGACCGGUACGGCCGCCACUCGGGUCCUAGAGUGAUGUUCUAAUAAUAUAAU [AK1 SS Tryptophan A] | 283 | 350 | 296 | 369 | 176
CUUAUGGACUAAGGAUAUGGGUAUACCGGAAGCGCCGUCACGGUAGUGAUGUUACACGCGACGGGACCAGAAGGUAGAUCGCUCC [theeternabot_exclusion_KL_FMN_B_33] | 73.9 | 96.2 | 101 | 71.3 | 85.5
CCGUAGAACGGAAGGAGCGCCAUAGAUAAGAAUUCCGUAAGUGAGUGAUGUUCACACAAAUGGCAGGUAGGUCGCCGUUAUUUAG [Arg B Ex t5] | 178 | 194 | 220 | 202 | 201
AAUCAAUACAGAAGGAGCGUGACAGUUGCGAGUGUAAUUUUAGCUAGUGAUGUUAGCAUUUCACAGGUAGGUCGCUGUACAUUUA [#05 K4 Arginine B Same State] | 115 | 134 | 133 | 140 | 105
AAGGUCACCACUACAGUGAUGUUGUAGGAGCAGGAUAUGCAGAAAUGCAGAAGGGCUCGCUCCAGGUGACCGAAUGAAACAUUCA [Omei KL FMN A SS A v4] | 217 | 341 | 382 | 325 | 381
UGUACCGAGUCAGGAUAUGGCGUCGAAAGACGAAUCCUAGUGAUGUUAGCGAUCUGCGAAAGCAGUCCAGAAGGGACUUGGUACU [FmnBS 26 C50] | 219 | 338 | 438 | 371 | 290
CACCAUGAAUUCUCUAGGAGUGAUGUUUUUCGAGGACCGGUACGGCCGCCACUCGGACGAGGACCGUGGGAGCGGCGAAGCGGCU [?oegmullin] | 99.2 | 59.1 | 767 | 169 | 104
UGUCAUUGGUCGGCCGCCACUAGGACCGGGAGUAACCUAGUGAUGUUAGUGUGCUCGGCCGCCACUAGGACCGGGACCGAUGACU [KL-SSTryp-B22 #DoubleAptamer] | 180 | 164 | 157 | 165 | 103
UGUACCGAGUCAGGAUAUGUCGUCGAAAGACGAAAUGGAGUGAUGUUCCUUAAACUGCGAAAGCAGACAGAAGGGACUUGGUACU [FmnBS 29 #SwitchBubble #StaticStem #DoubleMagnetSystem] | 160 | 278 | 385 | 331 | 274
GGGAUGAUGUCGGCCGCCACUGACUGUGUCCAGUGAUGUUGGGAGUGUACGGAAGUUCCAUAUAUCAGGACCGGGACCUCGCUCC [theeternabot_sameState_KL_Trp_B_44] | 866 | 487 | 938 | 817 | 616
AAGAGCUAGGCGGCCGCCACUAGUUGUGAACACGUACAAGCCAGUGAUGUUGGUAUGAUGGACGGUAGGACCGGGCCUAGCUGAA [Exclusion - Tryptophan B (Freestyle 14)] | 227 | 271 | 276 | 267 | 294
CGCGCCCGGCCGGAUACCAGUGACCCGCUGGGAACCGCGGGCCCAGAGUGAUGUUCGGGACACCCUUGGCAGCCGCCUGGGCGUG [#2 Same State - Theophylline B Attempt #5 (HarryS)] | 1110 | 364 | 841 | 738 | 550
CUCGAGUGAUGUUCGACGCGUCCGUACGAUACCAGCGUAGACCGUCGCCCUUGGCAGCGUGAUGCAGCCCGAAAGUCCGGUUCCU [theeternabot_sameState_KL_Theo_A_26] | 1160 | 833 | 1430 | 1120 | 1070
CGCAGUGAUGUUGCGAGUAGAUACAGGGAAGGAGCGCGGUAGUACGCAGGUAGGUCGCCCACGCAGUGAUGUUGCGUCAUAGGGU [Exclusion Arginine A GF6] | 103 | 93.1 | 91 | 98.6 | 95.7
GGAUAGGACAUAGGAUAUGGGCUAGGCAAGAAUAACUUGUCUAGCAAAUCCAUGAGGAGUGAUGUUCCAGAAGGAUGUCCUAUCG [FmnBX 1 U11+A75] | 566 | 108 | 112 | 123 | 84.5
UCCUUUUUUGCCAGUGAUGUUGGACAGGAAGGAGCGGGCAUAAGCCCAGGUAGGUCGCCUGUCAACUUUCUUAUAGCCCUAAGGU [Edveza] | 271 | 226 | 236 | 210 | 245
UGACUGGACUGAAGGAGCGCGAAACUCCUAGUGAUGUUAGGAAUACGAGACAAAGUCUCGACGCAGGUAGGUCGCAGUCUAGUCU [ArgBS 16 #SwitchBubble #StaticStem] | 115 | 94.5 | 113 | 110 | 100
AAGUGUGUGGCGGCCGCCACUAGGAUCCAGUGAUGUUGGAGAUAUCUCGUAAGAGAUAUCCGCCAUAGGACCGGGCCAUAUAGAA [Same State - Tryptophan B (Freestyle 16)] | 862 | 423 | 388 | 161 | 176
CGUUUAUAGCAGGAUACCAGUACCCAUAAAGUACGUUAAUAGUAGAGUGAUGUUCUAAAGUACCCUUGGCAGCUUCCCGUGACUG [ExTheophylB.U] | 65.3 | 116 | 79.5 | 99.8 | 52.9
AGGAUGUAGUGAUGUUAUAUAAGAAGUAAACGAGGACCGGUACGGCCGCCACUCGAAGCGGCUACUAGCGCGCGCGCGCGCGCGC [ExTryptoA.Ca] | 298 | 345 | 263 | 336 | 259
UAAUGGUAAGUGAUGUUUACCUGGAACGAUACCAGUCGCCAUGAGGACCCUUGGCAGCGUCACACAGCCUUCUAGUUGUGGUCUU [theeternabot_sameState_KL_Theo_A_46] | 418 | 298 | 347 | 499 | 353
